Source: the supplement of paper PMC9170038

Test system: MS2 coat protein
Assay: apparent KD of MS2 coat protein; higher = weaker reporter binding
Details: Eterna round: R107
Procedure, shortened: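 Designed RNA switches were made by on-chip transcription from Illumina sequencing clusters and then titrated with SNAP-549-labelled MS2 coat protein. Twofold steps ran from 0.7 or 1.5 nM to 3 µM, each lasting 0.8–1.5 h early and 10–20 min late, in 100 mM Tris-HCl pH 7.5, 80 mM KCl, 4 mM MgCl2, without or with constant ligand. Apparent KD is the per-design median of normalised cluster binding-curve fits.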

[1] = input ligand: theophylline 20 uM
[2] = input ligand: theophylline 2 mM
[3] = input ligand: tryptophan 2.4 mM

Sequence	apparent KD of MS2 coat protein (input ligand: arginine 13.2 mM)	apparent KD of MS2 coat protein [1]	apparent KD of MS2 coat protein [2]	apparent KD of MS2 coat protein [3]	apparent KD of MS2 coat protein (input ligand: none)
AACAUGAGGAUCACCCAUGUCCUCGUGUUCCGAGGACCGGUACGGCCGCCACUCGGUCCUCGCGAGGAUGGUCAAAGACUAUCCA [Omei Trp A SS B v3]	724 nM	378 nM	953 nM		
GCACUACAUGAGGAUCACCCAUGUGCAGAUACCAGAGGUGUAUGCCUCCCUUGGCAGCUGCGUCGCUCUGGAAACUUAUUGGUUU [Same State Theophylline A GF17]	18.3 nM	26.6 nM		18.6 nM	
UAAUAGGUCCAGAACGUACCAGGUGAUCAACGAGGACCGGUACGGCCGCCACUCGAAACAUGAGGAUCACCCAUGUAACUGGACC [|T'-M'-Trp-Ms2|_Design 2_ML]	173 nM	95.3 nM	518 nM	61.4 nM	72.9 nM
AAAGGAAGGUAAAAUAAAACUACAUGUGAAGGAGCGCCCGAAAGGGCAGGUAGGUCGCACAUGAGGAUCACCCAUGUCCUUCCAA [ArgEX 6 #SwitchBubble]	206 nM	315 nM	439 nM	293 nM	319 nM
AGCACUGUGACGGCCGCCACUACAUAUAGGGUGGUCAGGUUCAUAAUACAUGAGGAUCACCCAUGUAGGACCGGGUCUCAGUGCA [Omei Trp Exc B A v5]	12.5 nM	14.6 nM	14.6 nM		
ACGGAUCGGAAACGAUCCGCGGCGAGGGUGCGAGGACCGGUACGGCCGCCACUCGGGUAACAUGAGGAUCACCCAUGUCCGAAGA [ETA NuPACK+Vienna+Vienna2 #10 Same Structure]	35.8 nM	60.3 nM	106 nM	209 nM	55 nM
ACAUGAGGAUCACCCAUGUAAUAGCGAGAAGGAGCGCGUAAGGACGCAGGUAGGUCGCUCGUGGUCCGGCCGCAAGGCCGGACCA [#1 Same State - Arginine A Attempt #10 (HarryS)]	11.1 nM	18.6 nM	12 nM	13.2 nM	9.24 nM
AGCACUGUGACGGCCGCCACUACAUAAGAUGGGUGGUCAGGUUCAUUACAUGAGGAUCACCCAUGUAGGACCGGGUCUCAGUGCA [Omei Trp Exc B A v10]	7.97 nM	16.5 nM	10.9 nM	7.71 nM	9.29 nM
AGUUUAGACACGGCCGCCACUCGUGACAGAUUUCGCAGUGGUCUACAUGAGGAUCACCCAUGUCUGAGGACCGGGUGUUGAGUUU [XTryp B #8]	76.3 nM	177 nM	194 nM		
GGCACGUACGGAAGGAGCGACUGUUCGACGUGGGUACAUGAGGAUCACCCAUGUCUCCGCAGUCAGGUAGGUCGCCGUACGUGCC [EAB NP+V+V2 #21 +-Same Structure]	34.3 nM	63.6 nM	49.8 nM	38.6 nM	42.7 nM
GUCCUAGCGAUCGCUCGCUAGGACGCGGAUACCAGCGAGGUCCAUCGCCCUUGGCAGCCGAACAUGAGGAUCACCCAUGUCGGUA [#1 Same State - Theophylline A Attempt #18 (HarryS)]	8.4 nM	14.2 nM		10.2 nM	
GCCCUGCGCCCGGGACCGGCAAGAUCCAUGCGAGGACCGGUACGGCCGCCACUCGCAGACGUACAUGAGGAUCACCCAUGUCCUC [theeternabot_exclusion_MS2_Trp_A_24]	140 nM	838 nM	867 nM		
AAUCAUGGAAACAUGACAUGAGGAUUACUCCGAGGACCGGUACGGCCGCCACUCGCGAGGAGGCGGACAUGAGGAUCACCCAUGU [#03 Tryptophan A Same State]	55.8 nM	208 nM	189 nM		
UGCUGACAAGGACAUGGAUGAUCAGCUGAUACCAGCCUGGAAACAGGCCCUUGGCAGCAGCACAUGAGGAUCACCCAUGUAAUAA [(T)'-(M)'-(T1)-(T2)-(M1)-(M2)_Design3(Mismatches)]	28.4 nM	78.1 nM		27.2 nM	
UUAAUCGUGCAUGAUACCAGUAUCCGUAGAUACAUGAGGAUCACCCAUGUCUGGUUGGAAUACCCUUGGCAGCAUGGGUUGAGGA [theeternabot_sameState_MS2_Theo_B_20]	37.1 nM	224 nM		238 nM	
UGAUUGAACGGAAGGAGCGUGAAGAGAGAGAAACAUGAGGAUCACCCAUGUAGAGAGAGAACACAGGUAGGUCGCCGAGAGAUUG [11.B]	14.5 nM	21.2 nM	14.7 nM	11.2 nM	13.4 nM
ACGUAAUGCAGAAGGAGCGUCUAUGUGUUACAUGAGGAUCACCCAUGUGUUAUGUUAUGUGGACAGGUAGGUCGCUGAAGUACGA [JR_SSArginiB_Sub005]	45 nM	104 nM	134 nM	81 nM	127 nM
UCGUUUUAGUCGGCCGCCACUGUAUGCAUGUUUAACAUGAGGAUCACCCAUGUCCCGUACUAUAACAGGACCGGGACGUAAUAGA [JR_SSTryptoB_Sub006]	112 nM	207 nM	936 nM		
UAUUCUGACACAGAUACCAGUCAAUUCCGUGGCAAGUGCUACAUGAGGAUCACCCAUGUCGACCCUUGGCAGCUGAAGAGAUACA [theeternabot_exclusion_MS2_Theo_B_50]	10.9 nM	14.7 nM		11.2 nM	
AGCCUAUUACAUGAGGAUCACCCAUGUGAUACCAGUCAGGAAACUGACCCUUGGCAGCGCAUGAGGAUCACCCAUGCGCGAGGCA [Omei Theo A Exc A v4]	10.1 nM	12.9 nM		10.6 nM	
ACAUGAGGAUCACCCAUGUACAUGAGGGAAGGAGCGGUACAUGUGCCAGGUAGGUCGCCCAACAGCAUCAGCCAUGUACAACGGA [xxbmullin]	29 nM	87.4 nM	69.5 nM	52.3 nM	56.8 nM
UUAUAUUCUCAAUCGCCAUGUGCUUUAGAUACCAGUCUGAUAAAUGACCCUUGGCAGCUAGAGACAUGAGGAUCACCCAUGUCUU [theeternabot_exclusion_MS2_Theo_A_8]	11.3 nM	13.9 nM		11.2 nM	
GAUCCUCGUACGGAUACCAGCGACUAACAUGAGGAUCACCCAUGUGAUAAAGAAAAUAUUUGCCCUUGGCAGCCGAAUAGAUAGU [#21 Same State - Theophylline B]	36.5 nM	91.5 nM		74.2 nM	
GGCUGACAUGAGGAUCACCCAUGUAGUGAUACCAGUAAGAGAAUAUACCCUUGGCAGCACAGGUAACAACUCGUCUCCAAAGUAA [theeternabot_sameState_MS2_Theo_A_49]	53.7 nM	55.6 nM		38.2 nM	
UUGUACGAAACUGAUACCAGCCAGCAAUGCCACCAAGAGCACAUGAGGAUCACCCAUGUUGGCCCUUGGCAGCAGGACAAUAAGC [theeternabot_exclusion_MS2_Theo_B_3]	7.44 nM	10.6 nM		8.91 nM	
